Laboratory results taken from US20060228367A1 (AstraZeneca / MedImmune, published 2006).
Positions count from the first letter of the chain named. Where two headings read alike, the source gives them in different places.

B1: monoclonal antibody 168-A5-338-284 (antibody, V domains shown)
VH: QVQLKESGPGLVAPSQSLSITCTVSGFSLSSYGVHWVRQSPGKGLEWLGVMWGDGSTNYHSGLISRLTISKDSSKSQVFLKLNSLQTDDTATYYCGKSFGVYAVDYWGQGTSVTVSS
VL: DIQMTQTTSSLSASLGDRVTINCRASQDVNNYLNWYQQKPDGTVKLLIYYTSMLHSGVPSRFSGSGSETDYSLTITNLEQEDIATYFCQQGETLPPTFGGGTKVEIK
notes: Mouse hybridoma antibody purified on protein A; also called mAb338
B2: monoclonal antibody 168-A5-234-114 (antibody, V domains shown)
VH: B1 VH with S30T, S31D, H35S, S40P, M51I, S56N, G62A, T68S, S73N, V104M
VL: B1 VL with D1E, A25T, V29T, L33I, E68G, T76S, E92D
notes: Mouse hybridoma antibody purified on protein A; also called mAb234; mAb 234

Experiments:
[1] = target: T1, F protein of hMPV strain NL\1\99 (subtype B1), on virus (human metapneumovirus, isolate NL/1/99, UniProt Q6WB98 19-539); assay: cell-based or functional assay
[2] = target: T2, F protein of hMPV strain NL\1\94 (subtype B2), on virus (human metapneumovirus, isolate NL/1/94, UniProt Q6WB98 19-539); assay: cell-based or functional assay
[3] = target: T3, F protein of hMPV strain NL\1\00 (subtype A1), on virus (human metapneumovirus, isolate NL/1/00, UniProt Q6WB98 19-538); assay: cell-based or functional assay
[4] = target: T4, F protein of hMPV strain NL\17\00 (subtype A2), on virus (human metapneumovirus, isolate NL/17/00, UniProt Q6WB98 19-539); assay: cell-based or functional assay
[5] = target: T5, soluble histidine-tagged hMPV F protein from NL\1\00 (human metapneumovirus, isolate NL/1/00, UniProt Q6WB98 19-490); assay: Biacore SPR; F-00-1 immobilised at 134 RU, mAb injected
T5 construct: the reverse primer ends the F part at ...AEKGNTG before the tag; also called sFNL\1\00; soluble FNL\1\00

[6] = target: T6, soluble histidine-tagged hMPV F protein from NL\1\99 (human metapneumovirus, isolate NL/1/99, UniProt Q6WB98 19-490); assay: Biacore SPR (comparison table; virus type B)
T6 construct: also called sFNL\1\99; soluble FNL\1\99

[7] = target: T6, soluble histidine-tagged hMPV F protein …; assay: Biacore SPR; F-99-1 immobilised at 80 RU, mAb injected
[8] = target: T1, F protein of hMPV strain NL\1\99 …; assay: cell-based or functional assay; remark: listed apart in the source
[9] = target: T3, F protein of hMPV strain NL\1\00 …; assay: cell-based or functional assay; remark: listed apart in the source
[10] = target: T6, soluble histidine-tagged hMPV F protein …; assay: Biacore SPR; average of the two F-99-1 surfaces
[11] = target: T5, soluble histidine-tagged hMPV F protein …; assay: Biacore 3000 SPR; antigen immobilised on CM5 at 134 RU, mAb injected
[12] = target: T6, soluble histidine-tagged hMPV F protein …; assay: Biacore SPR (summary table)
[13] = target: T5, soluble histidine-tagged hMPV F protein …; assay: Biacore SPR (summary table)
[14] = target: T5, soluble histidine-tagged hMPV F protein …; assay: Biacore SPR (comparison table; virus type A)
[15] = target: T6, soluble histidine-tagged hMPV F protein …; assay: Biacore SPR; F-99-1 immobilised at 300 RU, mAb injected
[16] = target: T6, soluble histidine-tagged hMPV F protein …; assay: Biacore 3000 SPR; antigen immobilised on CM5 at 80 RU, mAb injected
[17] = target: T1, F protein of hMPV strain NL\1\99 …; assay: cell-based or functional assay; remark: listed apart in the source
[18] = target: T2, F protein of hMPV strain NL\1\94 …; assay: cell-based or functional assay; remark: listed apart in the source
[19] = target: T3, F protein of hMPV strain NL\1\00 …; assay: cell-based or functional assay; remark: listed apart in the source
[20] = target: T4, F protein of hMPV strain NL\17\00 …; assay: cell-based or functional assay; remark: listed apart in the source
[21] = target: T1, F protein of hMPV strain NL\1\99 …; assay: cell-based or functional assay; remark: listed apart in the source
[22] = target: T2, F protein of hMPV strain NL\1\94 …; assay: cell-based or functional assay; remark: listed apart in the source
[23] = target: T3, F protein of hMPV strain NL\1\00 …; assay: cell-based or functional assay; remark: listed apart in the source
[24] = target: T4, F protein of hMPV strain NL\17\00 …; assay: cell-based or functional assay; remark: listed apart in the source
[25] = target: T6, soluble histidine-tagged hMPV F protein …; assay: Biacore SPR; F-99-1 immobilised at 146 RU, mAb injected

Binder | IC50 (neutralization titer) [1] [nM] | IC50 (neutralization titer) [2] [nM] | IC50 (neutralization titer) [3] [nM] | IC50 (neutralization titer) [4] [nM] | Kd [5] [nM] | koff [5] [s⁻¹] | kon [5] [M⁻¹ s⁻¹] | Kd [6] [nM] | kon [6] [M⁻¹ s⁻¹] | Kd [7] [nM] | koff [7] [s⁻¹] | kon [7] [M⁻¹ s⁻¹] | IC50 in vitro neutralization [8] [µg/mL] | IC50 in vitro neutralization [9] [µg/mL] | Kd [10] [nM] | koff [10] [s⁻¹] | kon [10] [M⁻¹ s⁻¹] | Kd [11] [nM] | koff [11] [s⁻¹] | kon [11] [M⁻¹ s⁻¹] | other results
B1 | 0.2 | 1.1 | 2.5 | 5.4 | 1.74 | 0.000276 | 158000 | 1.42 | 192000 | 1.42 | 0.000272 | 192000 | 0.03 | 0.4 | 1.73 | 0.000282 | 163000 | 1.74 | 0.000276 | 158000 | Kd [12]: 1.4 nM; Kd [13]: 1.7 nM; Kd [14]: 1.74 nM; kon [14]: 158000 M⁻¹ s⁻¹; Kd [15]: 2.18 nM; koff [15]: 0.000293 s⁻¹; kon [15]: 134000 M⁻¹ s⁻¹; Kd [16]: 1.42 nM; koff [16]: 0.000272 s⁻¹; kon [16]: 192000 M⁻¹ s⁻¹; IC50 (virus neutralization) [17]: 0.03 µg/mL; IC50 (virus neutralization) [18]: 0.17 µg/mL; IC50 (virus neutralization) [19]: 0.38 µg/mL; IC50 (virus neutralization) [20]: 0.8 µg/mL; IC50 (neutralization titer) [21]: 0.03 µg/mL; IC50 (neutralization titer) [22]: 0.165 µg/mL; IC50 (neutralization titer) [23]: 0.375 µg/mL; IC50 (neutralization titer) [24]: 0.81 µg/mL
B2 | 0.05 | 1.2 | 3.9 | 7.7 | 4.49 | 0.000352 | 78300 | 2.41 | 192000 | 2.41 | 0.000463 | 192000 | 0.01 | 0.6 | 2.83 | 0.000382 | 135000 | 4.49 | 0.000352 | 78300 | Kd [12]: 2.4 nM; Kd [13]: 4.5 nM; Kd [14]: 4.49 nM; kon [14]: 783000 M⁻¹ s⁻¹; Kd [16]: 2.41 nM; koff [16]: 0.000463 s⁻¹; kon [16]: 192000 M⁻¹ s⁻¹; Kd [25]: 3.83 nM; koff [25]: 0.000302 s⁻¹; kon [25]: 78900 M⁻¹ s⁻¹; IC50 (virus neutralization) [17]: 0.01 µg/mL; IC50 (virus neutralization) [18]: 0.18 µg/mL; IC50 (virus neutralization) [19]: 0.59 µg/mL; IC50 (virus neutralization) [20]: 1.2 µg/mL; IC50 (neutralization titer) [21]: 0.0075 µg/mL; IC50 (neutralization titer) [22]: 0.18 µg/mL; IC50 (neutralization titer) [23]: 0.585 µg/mL; IC50 (neutralization titer) [24]: 1.16 µg/mL
